Data taken from US20250084163A1 (SORRENTO THERAPEUTICS, published 2025).
Substitutions are numbered along the chain they refer to.

B1: RO6A-a8gm (antibody, V domains shown)
VH: QVQLVESGGGLVKPGGSLRLSCAASGFTFSDYYMTWIRQAPGKGLEWVSYISGSSAYSNYADSVKGRFTISRDNSKNTLYLQMNSLRAEDTAVYYCARDPLLYGWLTDWGQGTLVTVSS
VL: QSALTQPASVSGSPGQSITISCTGTSSDGGGYDSVSWYQQHPGKAPKLMIYDVNKRPSGVSGRFSGSKSGNTASLTISGLQAEDEADYYCSSFTSDVMVFGGGTKLTVL
notes: it was detected with goat anti-human IgG and compared with an IgG1 isotype control
B2: RO6D8-s10 (antibody, V domains shown)
VH: QVQLVQSGAEVKKPGASVKVSCKASGYTFTNYYMHWVRQAPGQGLEWMGIINPSGGSTSYAQKFQGRVTMTRDTSTSTVYMELSSLRSEDTAVYYCARSSRSSYYLWVLDLWGQGTTVTVSS
VL: AIQMTQSPSSLSASVGDRVTITCRASQGVSTEIAWYQQKPGKAPKLLIYAASSLQSGVPSRFSGSGSGTDFTLTISSLQPEDFATYYCQQFNSYPITFGQGTRLEIK
B3: RO6D8-jlv1011 (antibody, V domains shown)
VH: QVQLVQSGAEVKKPGASVKVSCKASGYTFTSKYYHWVRQAPGQGLEWMGIINPTSGSTSYAQKFQGRVTMTRDTSTSTVYMELSSLRSEDTAVYYCARDSSRYSGWYFDLWGQGTTVTVSS
VL: B2 VL with M4L, F91Y, N92Y, S93G, T97A
B4: RO6D8-011 (antibody, V domains shown)
VH: B2 VH with S54T, G55S, S57R, S99D, R101S, S103W, Y105S, L106G, V108Y, L109F
VL: B2 VL with V29I, S30R, E32D, I33L, F91Y, N92Y, S93G, T97A
notes: it was captured by an anti-human Fc antibody in SPR; also called RO6D8-O11
B5: RO6D8wt (antibody, V domains shown)
VH: B2 VH with S99D, R101S, S103W, Y105S, L106G, V108Y, L109F
VL: B2 VL with G28D, S30R, T31A, E32H, I33L
notes: it was captured by an anti-human Fc antibody in SPR, so it carries a human Fc; also called wildtype anti-human ROR1 antibody

Key:
[1] = biological target: T1, Human ROR1 protein (UniProt Q01973-1) (human, UniProt Q01973 30-937); assay: flow cytometry on A549, Raji and MCF7 cells (ROR1+)
T1 construct: Endogenous ROR1 of human tumour cell lines; also called ROR1 on A549, Raji (RAJI) and MCF7 cells; cognate antigen expressed at the surface of cells
T1 sequence (Q01973 30-937 limits assumed, one chain of several): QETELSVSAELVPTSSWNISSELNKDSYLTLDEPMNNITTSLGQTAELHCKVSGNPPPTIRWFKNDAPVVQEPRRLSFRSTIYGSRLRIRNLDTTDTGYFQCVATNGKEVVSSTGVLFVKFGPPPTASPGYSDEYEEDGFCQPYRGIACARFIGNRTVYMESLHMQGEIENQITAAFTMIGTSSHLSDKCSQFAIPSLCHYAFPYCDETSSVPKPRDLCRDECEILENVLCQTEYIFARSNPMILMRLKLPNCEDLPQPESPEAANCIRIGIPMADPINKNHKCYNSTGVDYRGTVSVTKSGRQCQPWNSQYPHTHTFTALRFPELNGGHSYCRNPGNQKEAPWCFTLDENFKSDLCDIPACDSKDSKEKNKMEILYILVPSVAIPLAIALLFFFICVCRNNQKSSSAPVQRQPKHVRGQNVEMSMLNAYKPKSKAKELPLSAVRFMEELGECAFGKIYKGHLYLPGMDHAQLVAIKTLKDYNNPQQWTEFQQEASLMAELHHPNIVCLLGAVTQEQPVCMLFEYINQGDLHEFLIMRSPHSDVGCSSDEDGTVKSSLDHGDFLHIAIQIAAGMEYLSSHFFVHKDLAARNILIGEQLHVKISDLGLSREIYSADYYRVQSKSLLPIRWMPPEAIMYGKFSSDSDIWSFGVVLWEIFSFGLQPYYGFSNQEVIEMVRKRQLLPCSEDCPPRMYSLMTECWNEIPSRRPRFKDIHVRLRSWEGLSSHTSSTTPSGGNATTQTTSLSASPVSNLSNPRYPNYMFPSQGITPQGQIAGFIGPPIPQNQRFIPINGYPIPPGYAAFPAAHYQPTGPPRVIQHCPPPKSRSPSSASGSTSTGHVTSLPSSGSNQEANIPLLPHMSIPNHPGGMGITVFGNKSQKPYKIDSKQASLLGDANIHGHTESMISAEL
Description: Flow cytometry was used to test antibody binding to adenocarcinomic human alveolar basal epithelial cell line A549 (ROR1+), Burkitt's lymphoma cell line RAJI (ROR1+), breast cancer cell line (ROR1+), A549 ROR1-KO cell line (ROR1 knockout) which is ROR1 negative, and Duke's type B adenocarcinoma cell line LS174T (ROR1 negative).
The cells were re-suspended in 120 µL/well of FACS buffer containing Goat anti-human IgG AF647 (1:2,000, Southern Biotech, Cat No. 2040-31, Lot No. D1817-T817C) and plate was incubated for 20 minutes at 4° C. in the dark.
FIGS. 4A-E show anti-human ROR1 antibodies RO6D8-s10, RO6D8-jlv1011, RO6A-a7gm and RO6A-a8gm binding to ROR1-expressing A549 (FIG. 4A), Raji (FIG. 4B), and MCF7 (FIG. 4C) cells; and ROR1 negative A549 ROR1-KO (FIG. 4D) and LS174T (FIG. 4E) cells.

[2] = biological target: T2, Recombinant truncated human his-tag ROR1 Ig-like domain (human, UniProt Q01973 39-151); assay: ELISA, antibody coated at 5 ug/mL, his-tagged antigen at 2 ug/ml, anti-his HRP
T2 construct: also called human his-tag ROR1 Ig-like domain C-his; human ROR1 Ig-like domain
T2 sequence (Q01973 other isoform, or with tags, fused parts or gaps limits assumed): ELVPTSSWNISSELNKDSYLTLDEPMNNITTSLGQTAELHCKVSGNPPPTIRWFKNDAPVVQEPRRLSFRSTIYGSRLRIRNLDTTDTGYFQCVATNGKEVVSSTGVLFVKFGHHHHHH
Description: (§1) Cross-reactivity of the anti-human ROR1 antibodies with his-tagged ROR1 recombinant protein from human and mouse, were analyzed by ELISA assay. The antibodies 5 μg/mL (RO6D8wt, RO6D8-s10, RO6D8-glv1011, RO6D8-jlv1011, RO6D8-1v1011) were diluted with PBS buffer and coated on a plate at 50 μL per well or control buffers coated on a plate at 50 μL per well. The plate was washed three times with 150 μL/well of PBS-T (PBSIX supplemented with 0.05% Tween 20). Subsequently, the plate was blocked with 100 μL/well of blocking buffer (blocker Casein in PBS from Bioworld, Cat. No. 40320020-2) for 1 hour at RT. The plates were washed 3 times with 150 μL/well of PBS-T, after blocking. Recombinant mouse his-tag ROR1, 2 μg/ml (Acro Biosystems Cat. No. RO1-M5221, Lot: 1201-48ESI-65), human his-tag ROR1 extracellular domain (SEQ ID NO:2), 1 μg/ml (Acro Biosystems Cat. No. RO1-H522Y, lot: C81-76KF1-FR), human his-tag ROR1 Ig-like domain C-his, 2 μg/ml (Acro Biosystems Cat. No. RO1-H5221, Lot: B311-59SSI-CA), human his-tag CD138, 2 μg/ml (Sino Cat. No. 11429-H08H, Lot: LCL07NO0412) (negative control antibody), and Casein/PBS buffer (control). 30 μl of his-tagged ROR1 antigen, his tagged CD138 or Casein/PBS buffer were added to the plate, per well, and incubated for 1 hour at room temperature. The plate was washed three times with 150 μL/well of PBS-T and anti 6x-his (SEQ ID NO:58) tag antibody HRP (Abcam; Cat. No. Ab1187) was incubated at dilution 1:5,000, 30 μL/well for 1 hour at RT. […] The signal was stopped at the desired saturation point by using 15 μL/well of 2 N sulfuric acid (H₂SO₄) stop solution and read on a plate reader at 450 nm.

[3] = biological target: T3, Recombinant truncated human his-tag ROR1 extracellular domain protein (human, UniProt Q01973 30-403); assay: SPR (Biacore T200), antibody captured by anti-human Fc, his-tagged ROR1 ECD as analyte
T3 construct: the tag is part of the entry; also called his-tagged ROR1 protein; human ROR1 ECD
T3 sequence (Q01973 other isoform, or with tags, fused parts or gaps limits assumed): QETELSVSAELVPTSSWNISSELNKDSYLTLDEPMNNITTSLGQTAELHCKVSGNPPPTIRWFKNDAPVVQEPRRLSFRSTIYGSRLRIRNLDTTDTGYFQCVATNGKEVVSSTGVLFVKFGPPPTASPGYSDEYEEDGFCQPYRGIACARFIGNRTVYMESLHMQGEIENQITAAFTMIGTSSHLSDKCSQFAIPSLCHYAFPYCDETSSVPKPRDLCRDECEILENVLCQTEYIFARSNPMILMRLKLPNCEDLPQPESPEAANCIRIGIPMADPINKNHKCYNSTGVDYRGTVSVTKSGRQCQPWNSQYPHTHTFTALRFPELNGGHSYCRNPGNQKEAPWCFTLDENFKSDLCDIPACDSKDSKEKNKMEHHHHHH
Description: Binding kinetics of anti-ROR1 antibodies with his-tagged ROR1 protein were measured using surface plasmon resonance (SPR). The anti-ROR1 antibodies tested included proprietary antibodies RO6D8 wt, RO6D8-s10, RO6D8-jlv1011, and RO6D8-011. Anti-human fragment crystallizable region (Fc region) antibody was immobilized on a CM5 sensor chip to approximately 8,000 RU using standard N-hydroxysuccinimide/N-Ethyl-N′-(3-dimethylaminopropyl) carbodiimide hydrochloride (NHS/EDC) coupling methodology. The anti-ROR1 antibodies (1-2 μg/mL) were captured for 60 seconds at a flow rate of 10 μL/minute. The his-tagged ROR1 protein included amino acid 30 to amino acid 403 of SEQ ID NO: 1 (i.e., SEQ ID NO:2) (Acro Biosystems; Cat. No. RO1-H522Y). This polypeptide was serially diluted in a running buffer of 0.01 M HEPES pH 7.4, 0.15 M NaCl, 3 mM EDTA, 0.05% v/v Surfactant P20 (HBS-EP+) and run at 6 different dilutions. All measurements were conducted in HBS-EP+ buffer with a flow rate of 30 μL/minute. A 1:1 (Langmuir) binding model was used to fit the data. All BIACORE assays were performed at room temperature using Biacore T200 surface plasmon resonance (GE Healthcare).

[4] = biological target: T1, Human ROR1 protein (UniProt Q01973-1); assay: flow cytometry on A549 cells (ROR1+)
Description: Flow cytometry was used to test antibody binding to adenocarcinomic human alveolar basal epithelial cell line A549 (ROR1+) and immortalized line of human T lymphocyte cell line Jurkat (ROR1 negative), using various anti-ROR1 antibodies. The cells were prepared at concentration of 1×10⁶/ml in FACS buffer (PBS, 2% FBS, and 0.05% azide). Cells were plated at 30 μl/well in a V-bottom 96-well plate. Anti-ROR1 antibodies (with RO6D8wt used as control) were diluted in FACS buffer (5X serial dilution starting from 50 μg/ml) and 30 μl was added to each well with either A549 or Jurkat cells for 60 min on ice. After incubation, the cells were centrifuged at 2000 rpm for 5 minutes, flip out supernatant. After 1 wash with 200 μL/well of FACS buffer, cells were incubated with an AF647 goat anti-human Fab2 antibody (Jackson ImmunoResearch; Cat. No. 109-606-088) (dilution 1:2000 in FACS buffer) at 50 μL/well for 40 min on ice. After incubation, the cells were centrifuged at 2000 rpm for 5 minutes, flip out supernatant. After 1 wash with 200 μL/well of FACS buffer cells were resuspended in 30 μl of FACS buffer and acquired by flow cytometry using IntelliCyt readout.

[5] = biological target: T3, Recombinant truncated human his-tag …; assay: ELISA, antibody coated at 5 ug/mL, his-tagged antigen at 1 ug/ml, anti-his HRP
Description: as §1, with “(control).” for “(control). 30 μl of his-tagged ROR1 antigen, his tagged CD138 or Casein/PBS buffer were added to the plate, per well, and incubated for 1 hour at room temperature. The plate was washed three times with 150 μL/well of PBS-T and anti 6x-his (SEQ ID NO:58) tag antibody HRP (Abcam; Cat. No. Ab1187) was incubated at dilution 1:5,000, 30 μL/well for 1 hour at RT.”

| Binder | binding result [1] | binding result [2] | binding result [3] | binding result [4] | binding result [5] |
| --- | --- | --- | --- | --- | --- |
| B1 | binds | – | – | – | – |
| B2 | – | binds | binds | binds | – |
| B3 | – | binds | binds | binds | – |
| B4 | – | – | binds | – | – |
| B5 | – | binds | – | binds | binds |
